Test results reported in the nanobody polyreactivity screen of Harvey et al. (2022).

Experiment: yeast display, Sf9 membrane polyspecificity reagent, FACS + sequencing; frameworks hold sequencing errors
How it was run: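 Genes from sorted yeast were amplified by colony PCR, read by MiSeq 2 × 250 sequencing and filtered on CDR length. These cells carried a synthetic nanobody library in Saccharomyces cerevisiae BJ5465 and were sorted by FACS into low and high (top ~1%) gates on anti-HA and streptavidin fluorescence. Polyreactivity is labelled according to the gate of origin.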

Sequence	polyreactivity (PSR sort gate)
QVQLVESGGGLVQAGGSLRLSCGASGRIFAVNAMGWYRQARGKERELVAAITNVGSTNYADSVKGRFTISRDNAKNTVYLQMNSLKPEDTAVYYCNADLAQEDWKMDYWGLGTQVTVSS	low polyreactivity
QVQLVESGGGLVQAGGSLRLSCGASGRIFPGNAMGWYRQATGKERELVAGISFSGGRTYYADSVKGRFTISRDNAKNTVYLQMNSLTPEDSAVYYCATKYLQHWWRYDYWGQGTQVTVSS	low polyreactivity
QVQLVESGGGLVQAGGSLRLSCGASGRTFAIYVMGWYRQAPGKERELVAAISRGGSTYYADSVKGRFTISRDNAKNTVYLQMNSLKPEDTAVYYCAAGTGTTSRYYYWGQGTQVTVSS	high polyreactivity
QVQLVESGGGLVQAGGSLRLSCGASGSFFYFYSMGWYRQAPGKEREVVAAITDGGSTHYADSVKGRFTISRDNAKNTVDLQMNSLKPEDTAVYYCAAQWHYYLGSGYQYDYWGQGTQVTVSS	low polyreactivity
QVQLVESGGGLVQAGGSLRLSCGASGSTSDIYAMGWYRQAPGKESEFGAAISLTGGTTYYADSVKGRFTISCENAKNTVYLQMNSLKQEDTAVYYCNADVGWWGYDDDYWGQGTQVTVSS	high polyreactivity
QVQLVESGGGLVQAGGSLRLSCGASGYIFDRYPMGWYRQAPGKEREVVASISRRGGSTYYADSVKGRFTISRDNAKNTVYLQMNSLKPEATAVYYCAAKWPFRRSAVVRYDYWGQGTQVTVSS	high polyreactivity
QVQLVESGGGLVQAGGSLRLSCPASASNYAAYTMAWYRQAPGKERECVAAITSGGSTNYADSVKGRFTISRDNAKNTVYLQMNSLKPEDTAVYYCAAEDLNYYFWRSLWFGIYDDWGQGTQVTVSS	low polyreactivity
QVQLVESGGGLVQAGGSLRLSCPASGFIFSIYTMGWYRQAPGKERELVAAITRSGSSTYYADSVKGRFTISRDNAKNTVYLQMNSLKPEDTAVSYCNRLCFGQYQPFYGYWGQGTQVTVSS	high polyreactivity
QVQLVESGGGLVQAGGSLRLSCPASGFTFYVNAMGWSRQAPGKERELVAGITTSDGSTYYADSVKGRFTISRDNAKNNVYLQMNSLKPEDTAVYYCAAAITWYQLYQRSGGDYWGQGTQVTVSS	low polyreactivity
QVQLVESGGGLVQAGGSLRLSCPASGFTILDYAMGWYRQAPGKEREMVATINWSDVSTYYADSVKGRFTISRDTAKNTVYLQMNSLKPEDTAVYYCAVDVLTVGQSYDHWGQGTQVTVSS	high polyreactivity
QVQLVESGGGLVQAGGSLRLSCPASGGIFEGNAMGWYRQAPGKEMELVASITYGGGSTYYADSVKGRFTISRDNAKNTVYLQMNSLKPEDTAVYYCAADATTPGVQNGYGSWGQGTQVTVSS	low polyreactivity
QVQLVESGGGLVQAGGSLRLSCPASGITFVPNAMGWYRQAPGKERELVARIDNGVSTNYADSVKGRFTISRDNAKNTVYLQMNSLKPEDTAVYYCAKDGYWGDWDLDYWGQGTQVTVSS	low polyreactivity
QVQLVESGGGLVQAGGSLRLSCPASGLIFLHNAMGWYRQAPGKERELVATISLSGGSTYADSVKGRFTISRDNAKNTVYLQLYSLKPEDTAVYYCAAGGQYYIIRYDYWGQGTQVTVSS	low polyreactivity
QVQLVESGGGLVQAGGSLRLSCPASGLTFQRYAMGWYRQAPGKERELVAAITVGGGRTYYADSVKGRFTISRDNAKNTVYLQMNSLKPEDTAVYYCAADSHASTYDYWGQGTQVTVSS	low polyreactivity
QVQLVESGGGLVQAGGSLRLSCPASGLTFWLYALGWYRQAPGKERELVAAITRSGGSTSYADSVKGRFTISRDNAKNTVYLQMNSLKPEDTAVYYCNADSPGYTAVRLVEFDYWGQGTQVTVSS	low polyreactivity
QVQLVESGGGLVQAGGSLRLSCPASGNIFLSYAMGWYRQAPGKERELVAGISASGGRTYYADSVKGRFTISRDNAKNTVYLQMNSLKPEDTAVYYCATRGQTRTTTRYYSWGQGTQVTVSS	high polyreactivity
QVQLVESGGGLVQAGGSLRLSCPASGRIFVLGWYRQAPGKERELVAAINDSGDITYYADSVKGRFSISRDNAKYTVYLQMNSLKPEDTAVYYCAASAAYYGFYKSVTYDYWGQGSQVTVSS	low polyreactivity
QVQLVESGGGLVQAGGSLRLSCPASGRIFYKYAMGWYRQAPGKERELVAAISSTGGSTNYADSVKGRFTISRDNAKNSVYFQMNSLKPEDTAVYYCNAVSRYYYPYYYWGQGTQVTVSS	low polyreactivity
QVQLVESGGGLVQAGGSLRLSCPASGRIFYVYAMGWYRQAPGKERELVAAITSSGGSTNYADSVKGRFTISRDNAKNTVYLQMNSLKPEDTAVYYCAAKPYYIPTRTYSHYNFWGQGTQVTVSS	high polyreactivity
QVQLVESGGGLVQAGGSLRLSCPASGRTFILNDMGRYRQAPGKEREFVATIDWSGGSSYYADSVKGRFTISRDNAKNTVFLQMNSLKPEDTAVYYCNRAFVPVYDLDYYWGQGTQVTVSS	low polyreactivity
QVQLVESGGGLVQAGGSLRLSCPASGSICRYYAMGWYRQAPGKERELVAVITRGGSTYYADSVKGRFTISRDNAKNTVYLQMNSLKPEDTAVYYCAADYWPAGLDRGYWGQGTQVTLSS	low polyreactivity
QVQLVESGGGLVQAGGSLRLSCPASGSIFDVYTMGWYRQAPGKEMELVAAINTGGGSTYYADSVKGRFTISRDTAKNTVYLQMYSMKPEDTAVYSCAKEVSPYWTFDYWGQGTQVTVSS	low polyreactivity

Sequence	polyreactivity (PSR sort gate)
QVQLVESGGGLVQAGGSLRLSCPASGSIFPTYAMGRYRQAPGKERELVAAITTSGGNTFYADSVKGRFTISRDNAKNTVYLQMNRLKPEDTAVYYCAAYYSPYTVEYDYWGQGTLVTVSS	low polyreactivity
QVQLVESGGGLVQAGGSLRLSCPASGSIFRFYTMGWYRQAPGKERELVASITWTGGSSYYADSVKGRFTISRDNAKNTVYLQMNSLKPEDTAVYYCAARRYLRLVGRYDYWGQGTQVTVSS	low polyreactivity
QVQLVESGGGLVQAGGSLRLSCPASGSISRQYAMGWYRQAPGKERELVAAITVRGGSTYYADSVKGRFTISRDNAKNTVYLQMNSLKPEDTAVYYCAKYTRYSASYDYWGQGTQVTVSS	high polyreactivity
QVQLVESGGGLVQAGGSLRLSCPASGSTFEDNAMGWYRQAPGKERELVAAISRTGGRTYYADSVKGRFTISRDNAKNTVYLQMNSLKPEDTAVYYCNAVYPAQRMDYWGQGTQVTVSS	high polyreactivity
QVQLVESGGGLVQAGGSLRLSCPASGSTFQYNPLGWYRQAPGKERELVAAISRRGGSTYYADSVKGRFTISRDNAKNTVYLQMNSLKPEDTAVYYCAVSAYKGYDYWGQGTQVTVSS	high polyreactivity
QVQLVESGGGLVQAGGSLRLSCPASGSTFRHYVMGRYRQAPGKERELVAAINWTSGSTNYADSVKGRFTISRDNAKNTVYFQMNSLKPEDTAVYYCAARGPVGYGWRYRPWHDYWGQGTQVTVSS	high polyreactivity
QVQLVESGGGLVQAGGSLRLSCPASGSTIPLYAMGWYRPAPGKERELVAAISRRGGRTYYADSVKGRFTISRDNAKNSVYLQMNSLKPEDTAVYYCATAQGSRVDYWGQGTQVTVSS	high polyreactivity
QVQLVESGGGLVQAGGSLRLSCPASGSTLWGYAMGWYRQAPGKERELVAAITSSGGITYYADSVKGRFTISRDNAKNTVYLQMNSLKPEDTAVYYCAVDYYVVGWTYLYYYRGQGTQVTVSS	low polyreactivity
QVQLVESGGGLVQAGGSLRLSCPASVSIFYTYAMGLYRQAPGKEREFFASNTYRGSNTYYADSVKGRFTISRDNAKNTVYLQMNSLKPEDTAVYYCAAERYLYYPPYIYETSYVYWGQGSQVTVSS	low polyreactivity
QVQLVESGGGLVQAGGSLRLSCPPSGYTISHYAMGWYRQAPGKERELVAGITWSGGSTYYADSVKGRFTISRDNAKNTVYLQMNSLKPEDTSVYFCAAKYYWYYSYSGIPLFDYWGQGTQVTVSS	low polyreactivity
QVQLVESGGGLVQAGGSLRLSCSACGFIFPSYVMGWYRQAPGKERELVATISRSGGSTYYADSVKGRFTISRDNAKNTVYLQMNSLKPEDTAVYYCATRRRCRYSPYSPYDYWGQGTQVTVTS	high polyreactivity
QVQLVESGGGLVQAGGSLRLSCSASERTFYWNTMGWYRQAPGKERELVAAIRTSGGSTYYADSVKGRFTISRDNAKNTVYLQMNSLKPEDTAVYYCAAKYRNYNTRYDYWGQGTQVTVSS	high polyreactivity
QVQLVESGGGLVQAGGSLRLSCSASGFIFGKYAMGRYRQAPGKERELVAAISKSGGSTYYADSVKGRFTISRDNAKNTVYLQMNSLKPEDTAVYYCDARSLGHYGSWGQGTQVTVSS	high polyreactivity
QVQLVESGGGLVQAGGSLRLSCSASGFIFRRYAMGWYRQAPGKEREFVAAITSSGTSTYYADSVKGRFTISRDNAKNTVYLQMNSLKPEDTAVYYCADVYQYTHYYSNYGYWGEGTQVTVSS	high polyreactivity
QVQLVESGGGLVQAGGSLRLSCSASGFIFTTYAMAWYRQAPGKERELVAAIRNSDGSTYYADSVKGRFTISRDNAKNTVYLQMNSLKPVDTAVYYCAKRYRGEPGRTYGYWGQGTQVTVSS	high polyreactivity
QVQLVESGGGLVQAGGSLRLSCSASGFIFTYVMGWYRQAPGKERELVAVITNGGSTYYADSVKGRFTISRDNAMNTVYLQMNSLKPEDTAVYYCAARARFRYDSYYYWGQGTQVTVSS	high polyreactivity
QVQLVESGGGLVQAGGSLRLSCSASGFTFKRYAKGLYRQAHGKERELVASISSSGGRTYYADSVKGRFTISRDNAKNTVYLQMNSLKPEDTAVYYCSASDWWGYYFWGQGTQVTVSS	high polyreactivity
QVQLVESGGGLVQAGGSLRLSCSASGGTFSYYAMGWYRQAPGKERELVASISTDGGSTYYADSVKGRFTISRDNAKNTVYLQMNSLKPEDTAVYYCNARPRGYSDRYGYWGQGTQVTVSS	high polyreactivity
QVQLVESGGGLVQAGGSLRLSCSASGIIFGFYAMGWYRQAPGKERELVAAITNDGGNTNYADSVKGRFTISRDNAKNTVYLQMNSLKPEDTAVYYCNADRTQDRNPYTYATFDYWGQGTQVTVSS	low polyreactivity
QVQLVESGGGLVQAGGSLRLSCSASGIIFPTYAMGLYRQAPGKERELVAAIRWTGGSTYYADSVKGRFTISRDNAKNTVYLQMNSLKPEDTAVYYCAAAYRGRYKYYYWGQGTQVTVSS	high polyreactivity
QVQLVESGGGLVQAGGSLRLSCSASGITFFTYAMGWYRQAPGKERELVAAISGSGGSTYYADSVKGRFTISRDNAKNTVYLQMNSLKPEDTADYYCAAEYTYASPYDYWGQGTQVTVSS	low polyreactivity
